Test results published in PMC7098737.
Values joined by “and” are separate entries in the source; they are usually repeats but may differ in a detail not shown here. Equal values may be shown once.

Columns and labels:
[1] = biological target: M2-Strep-tag II fusion protein (Strep II tag, 6xHis tag, full-length human MBL2) (human) (UniProt P11226); experiment: native gel or EMSA; native PAGE of purified M1 and of purified M2; oligomer size from the apparent molecular weight against the monomer's size by SDS-PAGE; for M2 the names trimer, tetramer, pentamer count subunits of three 32-kDa chains
[2] = biological target: recombinant human mannan-binding lectin M1 (6xHis, MAKT, human IgG1 Fc C220-G446, Arg linker, human MBL2 neck and CRD 81-228) (human) (UniProt P11226); experiment: as above

Substance: M2-Strep-tag II fusion protein (Strep II tag, 6xHis tag, full-length human MBL2) (from UniProt P11226 21-248) (natural protein)
- stoichiometry N [1]: 4 and 3 and 5

Substance: recombinant human mannan-binding lectin M1 (6xHis, MAKT, human IgG1 Fc C220-G446, Arg linker, human MBL2 neck and CRD 81-228) (from UniProt P11226 101-248) (Fc fusion)
- stoichiometry N [2]: 6 monomers
